Values quoted from earlier work as cited in paper PMC7662479.

Target: Angiopoietin-2 (Homo sapiens) (UniProt O15123)
Sequence of UniProt O15123 (O15123 19-496): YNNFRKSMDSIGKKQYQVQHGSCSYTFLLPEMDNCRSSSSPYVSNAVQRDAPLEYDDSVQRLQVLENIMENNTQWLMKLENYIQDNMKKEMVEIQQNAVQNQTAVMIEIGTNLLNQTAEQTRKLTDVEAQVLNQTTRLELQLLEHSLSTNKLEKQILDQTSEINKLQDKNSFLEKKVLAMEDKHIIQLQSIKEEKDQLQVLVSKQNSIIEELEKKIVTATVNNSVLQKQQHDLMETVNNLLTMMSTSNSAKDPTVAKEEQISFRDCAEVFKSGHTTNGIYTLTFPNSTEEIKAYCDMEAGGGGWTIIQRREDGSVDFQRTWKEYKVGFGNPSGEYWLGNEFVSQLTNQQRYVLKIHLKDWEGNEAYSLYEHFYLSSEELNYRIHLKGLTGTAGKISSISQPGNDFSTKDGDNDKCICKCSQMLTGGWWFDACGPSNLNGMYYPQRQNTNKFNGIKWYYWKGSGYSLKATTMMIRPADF

Kd: 0.024 nM
Substance: nesvacumab
